Data reported in publication doi:10.1101/2023.08.15.553389.

Target: IgG1 Fc L234C/E382A ("less-crystallisable" Fc with L234C exchange)
Experiment: crystal structure

B1: EndoS2 (38-843) D184A/E186L, inactive exchange variant (enzyme)
chain: EKTVQTGKTDQQVGAKLVQEIREGKRGPLYAGYFRTWHDRASTGIDGKQQHPENTMAEVPKEVDILFVFHDHTASDSPFWSELKDSYVHKLHQQGTALVQTIGVNELNGRTGLSKDYPDTPEGNKALAAAIVKAFVTDRGVDGLDIAILHEFTNKRTPEEDARALNVFKEIAQLIGKNGSDKSKLLIMDTTLSVENNPIFKGIAEDLDYLLRQYYGSQGGEAEVDTINSDWNQYQNYIDASQFMIGFSFFEESASKGNLWFDVNEYDPNNPEKGKDIEGTRAKKYAEWQPSTGGLKAGIFSYAIDRDGVAHVPSTYKNRTSTNLQRHEVDNISHTDYTVSRKLKTLMTEDKRYDVIDQKDIPDPALREQIIQQVGQYKGDLERYNKTLVLTGDKIQNLKGLEKLSKLQKLELRQLSNVKEITPELLPESMKKDAELVMVGMTGLEKLNLSGLNRQTLDGIDVNSITHLTSFDISHNSLDLSEKSEDRKLLMTLMEQVSNHQKITVKNTAFENQKPKGYYPQTYDTKEGHYDVDNAEHDILTDFVFGTVTKRNTFIGDEEAFAIYKEGAVDGRQYVSKDYTYEAFRKDYKGYKVHLTASNLGETVTSKVTATTDETYLVDVSDGEKVVHHMKLNIGSGAIMMENLAKGAKVIGTSGDFEQAKKIFDGEKSDRFFTWGQTNWIAFDLGEINLAKEWRLFNAETNTEIKTDSSLNVAKGRLQILKDTTIDLEKMDIKNRKEYLSNDENWTDVAQMDDAKAIFNSKLSNVLSRYWRFCVDGGASSYYPQYTELQILGQRLSNDVANTLKD
  stoichiometry N (EndoS2 molecules per Fc homodimer): 2
